These results are taken from PMC4484057, “Daple is a novel non-receptor GEF required for trimeric G protein activation in Wnt signaling” (eLife, 2015).

T1: GST-Daple-CT (human, UniProt Q9P219-1 1650-2028)
T1 construct: Daple (CCDC88C), human, C-terminal region; pGEX-4T construct; also called GST-Daple-CT WT; source: E. coli BL21 (DE3), purified (glutathione-Sepharose 4B)
T1 sequence (looked up): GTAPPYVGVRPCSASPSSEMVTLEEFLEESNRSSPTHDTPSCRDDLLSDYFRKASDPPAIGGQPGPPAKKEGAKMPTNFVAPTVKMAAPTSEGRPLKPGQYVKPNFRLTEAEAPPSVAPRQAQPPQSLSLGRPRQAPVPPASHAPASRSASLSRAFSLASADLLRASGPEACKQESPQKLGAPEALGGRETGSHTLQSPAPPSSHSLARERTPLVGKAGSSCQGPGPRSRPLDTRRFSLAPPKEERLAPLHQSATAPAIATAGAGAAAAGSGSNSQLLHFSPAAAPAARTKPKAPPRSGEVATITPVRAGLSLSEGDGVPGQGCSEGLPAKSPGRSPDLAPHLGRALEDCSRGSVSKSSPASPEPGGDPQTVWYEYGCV

B1: His-Daple-CT (aa 1650–2028) (domain or fragment, human, UniProt Q9P219-1 1650-2028, looked up)
chain: T1 sequence (looked up)
notes: Cloned from myc-Daple pcDNA 3.1 into pET28b between NdeI/EcoRI; also called His-Daple-CT WT; Daple-CT-WT; source: E. coli BL21 (DE3), purified (HisPur Cobalt Resin)
B2: GST-Gαi3 W258F (natural protein, rat, UniProt P08753 1-354, looked up)
chain: MGCTLSAEDKAAVERSKMIDRNLREDGEKAAKEVKLLLLGAGESGKSTIVKQMKIIHEDGYSEDECKQYKVVVYSNTIQSIIAIIRAMGRLKIDFGEAARADDARQLFVLAGSAEEGVMTSELAGVIKRLWRDGGVQACFSRSREYQLNDSASYYLNDLDRISQTNYIPTQQDVLRTRVKTTGIVETHFTFKELYFKMFDVGGQRSERKKWIHCFEGVTAIIFCVALSDYDLVLAEDEEMNRMHESMKLFDSICNNKFFTDTSIILFLNKKDLFEEKIKRSPLTICYPEYTGSNTYEEAAAYIQCQFEDLNRRKDTKEVYTHFTCATDTKNVQFVFDAVTDVIIKNNLKECGLY
notes: Gαi3, rat, W258F; source: E. coli BL21 (DE3), purified (glutathione-Sepharose 4B)
B3: GST-Gαi2 (natural protein, rat, UniProt P04897 1-355, looked up)
chain: MGCTVSAEDKAAAERSKMIDKNLREDGEKAAREVKLLLLGAGESGKSTIVKQMKIIHEDGYSEEECRQYRAVVYSNTIQSIMAIVKAMGNLQIDFADPQRADDARQLFALSCAAEEQGMLPEDLSGVIRRLWADHGVQACFGRSREYQLNDSAAYYLNDLERIAQSDYIPTQQDVLRTRVKTTGIVETHFTFKDLHFKMFDVGGQRSERKKWIHCFEGVTAIIFCVALSAYDLVLAEDEEMNRMHESMKLFDSICNNKWFTDTSIILFLNKKDLFEEKITQSPLTICFPEYTGANKYDEAASYIQSKFEDLNKRKDTKEIYTHFTCATDTKNVQFVFDAVTDVIIKNNLKDCGLF
notes: Gαi2, rat, in pGEX-4T-1; also called GST-fused Gαi2; source: E. coli BL21 (DE3), purified (glutathione-Sepharose 4B)
B4: GST-Gαi3 K248M (natural protein, rat, UniProt P08753 1-354, looked up)
chain: B2 chain with K248M, F258W
notes: Gαi3, rat, K248M; source: E. coli BL21 (DE3), purified (glutathione-Sepharose 4B)
B5: GST-GIV-CT (aa 1671–1755) (domain or fragment, UniProt Q3V6T2 1671-1755, looked up)
chain: IKTGSPGSEVVTLQQFLEESNKLTSVQIKSSSQENLLDEVMKSLSVSSDFLGKDKPVSCGLARSVSGKTPGDFYDRRTTKPEFLR
notes: GIV (CCDC88A, Girdin), aa 1671–1755, holds the GBA motif; also called GST-GIV CT 1671–1755 aa; source: E. coli BL21 (DE3), purified (glutathione-Sepharose 4B)
B6: His-Gαi3 (natural protein, rat, UniProt P08753 1-354, looked up)
chain: B2 chain with F258W
notes: also called His-Gαi3-GDP; recombinant His-Gαi3; source: E. coli BL21 (DE3), purified (HisPur Cobalt Resin)

Assay [1] deals with B6. Put plainly: cell-based or functional assay.
The target of another assay is T2, GST-Gαi3 (rat, UniProt P08753 1-354).
T2 construct: Gαi3, rat, in pGEX-4T-1; Loaded with GDP, GDP + AlF4- or GTPγS as the assay says; also called GST-Gαi3 WT; source: E. coli BL21 (DE3), purified (glutathione-Sepharose 4B)
The assay can be described thus: pull-down; Gβγ displacement: GST-Gαi3·Gβγ preformed on glutathione-agarose beads (∼0.4 µM GST-Gαi3), 0.05–1 µM His-Daple-CT, 5 hr at 4°C, GDP; bound Gβγ by immunoblot fitted to a single-site competition curve. The conditions noted are these: both partners purified. (Immunoblotting shows a protein as a band on a membrane.)

In assay [2] the target is B1. The assay can be described thus: pull-down; GST-Gα protein (5 µg) preloaded with GDP (inactive) on glutathione beads; purified His-Daple-CT (3 µg); 4 hr at 4°C; 50 mM Tris-HCl pH 7.4, 100 mM NaCl, 0.4% NP-40, 10 mM MgCl2, 5 mM EDTA, 30 µM GDP, 2 mM DTT; immunoblot. The conditions noted are these: both partners purified.
The target in assay [3] is B6. Put plainly: pull-down; GST-Daple-CT or GST-GIV-CT immobilised on glutathione-agarose beads; 0.01–3 µM purified His-Gαi3 (GDP-loaded); band intensities of immunoblots fitted to a single-site binding hyperbola; four independent experiments. The conditions noted are these: both partners purified.
Another assay deals with T1, GST-Daple-CT. The assay is described as above. The conditions noted are these: both partners purified.

Numbering of substitutions follows the chain as printed. Numbers in names are those of the source.

Chain of His-Gαi3 (P08753 whole entry): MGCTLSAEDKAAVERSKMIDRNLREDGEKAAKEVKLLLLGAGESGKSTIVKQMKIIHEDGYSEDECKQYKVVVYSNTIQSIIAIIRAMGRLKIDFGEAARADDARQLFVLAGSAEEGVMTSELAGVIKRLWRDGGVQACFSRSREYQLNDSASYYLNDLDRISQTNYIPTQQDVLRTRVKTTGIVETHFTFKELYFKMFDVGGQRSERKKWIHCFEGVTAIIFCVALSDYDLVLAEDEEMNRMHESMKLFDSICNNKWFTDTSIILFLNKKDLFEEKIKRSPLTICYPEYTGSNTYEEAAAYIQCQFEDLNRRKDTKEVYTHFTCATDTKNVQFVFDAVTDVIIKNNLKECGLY

Consider B1, for which the “steady-state GTPase activity of His-Gαi3 with 2 µM His-Daple-CT, over the basal activity” value with His-Gαi3 [1] is about 3 fold. Besides, the IC50 (commonly the concentration needed to halve the response being measured) with GST-Gαi3 is 160 nM.

With B2, the binding result in assay [2] is on record as “binds”.

Take B3: in assay [2], the binding result is on record as “binds”. On the same count and under the same terms, under B4 stands “binds”. With B5, in the assay with His-Gαi3 [3], binding was put at a Kd of 240 nM. Turning to B6, the affinity in the assay with GST-Daple-CT, expressed as Kd, was 110 nM.
